Experimental data from patent publication CN116143917A (DONGGUAN PENGZHI BIOTECHNOLOGY CO LTD, dated 2023).
Blank lines part the entries; values can stand above or below the molecule they belong to.

Biological target: T1, D-二聚体抗原(购自菲鹏)
T1 chain 1: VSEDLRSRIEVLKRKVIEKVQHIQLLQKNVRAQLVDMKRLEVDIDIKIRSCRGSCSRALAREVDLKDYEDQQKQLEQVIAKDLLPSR
T1 chain 2: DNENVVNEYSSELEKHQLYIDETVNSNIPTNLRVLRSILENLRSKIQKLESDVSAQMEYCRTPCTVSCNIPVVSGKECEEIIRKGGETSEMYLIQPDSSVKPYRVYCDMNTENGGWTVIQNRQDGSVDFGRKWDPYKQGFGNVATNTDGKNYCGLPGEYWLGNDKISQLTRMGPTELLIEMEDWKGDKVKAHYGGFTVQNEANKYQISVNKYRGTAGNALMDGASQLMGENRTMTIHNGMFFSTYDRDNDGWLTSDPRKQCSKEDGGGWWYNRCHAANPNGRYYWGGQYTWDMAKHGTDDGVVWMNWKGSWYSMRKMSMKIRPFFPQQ
T1 chain 3: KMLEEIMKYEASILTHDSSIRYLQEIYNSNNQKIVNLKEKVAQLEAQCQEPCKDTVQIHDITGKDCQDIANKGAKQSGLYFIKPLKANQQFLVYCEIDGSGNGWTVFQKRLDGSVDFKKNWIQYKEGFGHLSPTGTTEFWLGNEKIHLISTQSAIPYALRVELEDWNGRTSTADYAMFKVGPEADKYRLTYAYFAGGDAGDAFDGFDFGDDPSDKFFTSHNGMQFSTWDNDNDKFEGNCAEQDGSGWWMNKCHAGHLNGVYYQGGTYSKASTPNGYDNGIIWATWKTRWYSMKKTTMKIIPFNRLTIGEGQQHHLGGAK
Assay: BLI, AMC sensor, antibody immobilised, D-dimer antigen in serial dilution

Kd: 21.4 nM | koff: 0.000132 s⁻¹ | kon: 6170 M⁻¹ s⁻¹
Molecule: 对照抗体 (antibody)

Kd: 9.9 nM | koff: 0.00545 s⁻¹ | kon: 550000 M⁻¹ s⁻¹
B1: 14D2RMb-1 (antibody, mouse IgG2a, kappa)
heavy: QVQLQQSGPELVRPGVSVKISCKGSGYRFTDYSIHWLKQSHAKSLEWIGVISTYSGNPDYNQKFKGKATMTVDQSSSTAYMELARLTSDDSAIYYCSRMNDYYGDYFFDHWGQGTTLIVSSAKTTAPSVYPLAPVCGDTTGSSVTLGCLVKGYFPEPVTLTWNSGSLSSGVHTFPAVLQSDLYTLSSSVTVTSSTWPSQSITCNVAHPASSTKVDKKIEPRGPTIKPCPPCKCPAPNLLGGPSVFIFPPKIKDVLMISLSPIVTCVVVDVSEDDPDVQISWFVNNVEVHTAQTQTHREDYNSTLRVVSALPIQHQDWMSGKEFKCKVNNKDLPAPIERTISKPKGSVRAPQVYVLPPPEEEMTKKQVTLTCMVTDFMPEDIYVEWTNNGKTELNYKNTEPVLDSDGSYFMYSKLRVEKKNWVERNSYSCSVVHEGLHNHHTTKSFSRTPGK
light: DVVMTQTPLSLFVDLGDPASISCRSSQSLVHTNGNTYLHWYLQKPGQSPRLLIYKVSNRFSGVPDRFSGSGSGTDFTFKISSVEAEDLGLYFCSQSRHVPLTFGAGTKLELKRADAAPTVSIFPPSSEQLTSGGASVVCFLNNFYPKDINVKWKIDGSERQNGVLNSWTDQDSKDSTYSMSSTLTLTKDEYERHNSYTCEATHKTSTSPIVKSFNRNEC
notes: Recombinant monoclonal antibody made in CHO cells from hybridoma genes; also called 14D2RMb-1抗体
